# Assay results from PMC6538622 (Scientific Reports, 2019).
# B1: Escherichia coli RNase E N-terminal catalytic domain (domain or fragment)
# chain: not shown
# notes: also called EcRNase E NTD; E. coli RNase E NTD
# Molecular target: the molecule itself
# Experiment: SEC-SAXS; 5-10 mg/ml protein in 10 mM DTT, 10 mM MgCl2, 0.5 M NaCl, 20 mM Tris pH 8; KW403-4F size-exclusion column, B21 beamline (Diamond Light Source); molecular mass from I(0)
protein,measurement,value
B1,stoichiometry N,4
